{"source": "the RNAGym collection of RNA variant scans (doi:10.1073/pnas.2313332121)", "parents": {"B1": {"name": "TPR t1 (parent)", "chain": "GACCAAUCUGCCCUCAGAGCUCGAGAACAUCUUCGGAUGCAGAGGAGGCAGGCUUCGGUGGCGCGAUAGCGCCAACGUCCUCAACCUCCAAUGCAUCCCACCACAUGAUGAUGCCUGAAGAGCCUUGGUUUUUUG"}}}
{"variants_of": "B1", "assay": "polymerase ribozyme fitness, log enrichment relative to wild type (log ratio); higher = more active; in vitro selection for triplet polymerase activity", "method_in_brief": "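Mutant libraries of each subunit of a heterodimeric triplet polymerase ribozyme were built by PCR and transcribed. Each library went through one round of in vitro selection in triplicate: annealing with biotinylated primer, partner subunit and triplets, frozen incubation at −7 °C, gel excision of extended constructs, streptavidin-bead capture and RT-PCR. Input and output libraries were Illumina-sequenced; only genotypes with ≥10 input reads and ≥1 read per output were kept. Fitness is log2(genotype enrichment/wild-type enrichment), using inverse-variance-weighted replicate averages.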"}
{"variant": "GACCAAUCUGCCCUCAGAGCUCGAGAACAUCUUCGGAUCCAGAGUAGGCAGGCUUCGGUGACGCGAUAGCGCCAACGUCCUCAACCUCCAAUGCAUCCCACCACAUGAUGACGCCUGAAGAGCCUUGGUUUUUUG", "note": "[G39C G45U G61A U112C]", "polymerase ribozyme fitness (log ratio)": 0.603}
{"variant": "GACCAAUCUGCCCUCAGAGCUCGAGAACAUCUUCGGAUUCAGCGGAGGAAGGCUUCGGUGGCGCGAUAGCGCCAACGUCCUCAACCUCCAAUGCAUCCCACCACAUGAUGAUGCCUGAAGAGCCUUGGUUUUUUG", "note": "[G39U A43C C49A]", "polymerase ribozyme fitness (log ratio)": -3.34}
{"variant": "GACCAAUCUGCCCUCAGAGCUCGAGAACAUCUUCGGAUCCAGAGGAGGCAGGCUUCGGUGGCGCGAUAGCACCAACGUCCUCAACCUCCAAUGCAUCCCACCACAUGAUGAUGCCUGAAGAGCCUUGGUUUUUUG", "note": "[G39C G71A]", "polymerase ribozyme fitness (log ratio)": -1.21}
{"variant": "GACCAAUCUGCCCUCAGAGCUCGAGAACAUCUUCGGAUCCAGAGGAGGCAGGCUUCAGUGGCGCGAUAGCGCCAACGUCCUCAACCUCCAAUGCAUCCCACCACAUGAUGAUGCCUGAAGAGCCUUGGUUUUUUG", "note": "[G39C G57A]", "polymerase ribozyme fitness (log ratio)": -1.33}
{"variant": "GACCAAUCUGCCCUCAGAGCUCGAGAACAUCUUCGGAUCCAGAGGAGGCAGGCUUCGGUGGCGCGAUAGCGCCAACGUCCUCAACCUCCAAUGCAUCCCACCACAUGAUGAAGCCUGAAGAGCCUUGGUUUUUUG", "note": "[G39C U112A]", "polymerase ribozyme fitness (log ratio)": 0.828}
{"variant": "GACCAAUCUGCCCUCAGAGCUCGAGAACAUCUUCGGAUCCAGAGGAGGCAGGCUUCGGUGGCGCGAUAGCGCCAACGCCCUCAACCUCCAAUGCAUCCCACCACAUGAUGAUGCCUGAAGAGCCUUGGUUUUUUG", "note": "[G39C U78C]", "polymerase ribozyme fitness (log ratio)": -1.14}
{"variant": "GACCAAUCUGCCCUCAGAGCUCGAGAACAUCUUCGGAUCCAGAGGAGGCAGGCUUCGGUGGCGCGAUAGCGCCAACGUCCUCAACCUCCAAUGCAUCCCACCACAUGAUGAUGCCUGAAAAGCCUUGGUUUUUUG", "note": "[G39C G120A]", "polymerase ribozyme fitness (log ratio)": 0.0157}
{"variant": "GACCAAUCUGCCCUCAGAGCUCGAGAACAUCUUCGGAUCCAGAGGAGUCAGGCUUCGGUGGCGCGAUAGCGCCAUCGUCCUCAACCUCCAAUGCAUCCCACCACAUGAUGAUGCCUGAAGAGCCUUGGUUUUUUG", "note": "[G39C G48U A75U]", "polymerase ribozyme fitness (log ratio)": -1.28}
{"variant": "GACCAAUCUGCCCUCAGAGCUCGAGAACAUCUUCGGAUCCAGAGGAGACAGGCUUCGGUGGCGCGAUAGCUCCAACGUCCUCAACCUCCAAUGCAUCCCACCACAUGAUGAUGCCUGAAGAGCCUUGGUUUUUUG", "note": "[G39C G48A G71U]", "polymerase ribozyme fitness (log ratio)": -1.51}
{"variant": "GACCAAUCUGCCCUCAGAGCUCGAGAACAUCUUCGGAUUCGGAUGAGGCAGGCUUGGGUGGCGCGAUAGCGCCAACGUCCUCAACCUCCAAUGCAUCCCACCACCUGAUGUUGCCUGAAGAGCCUUGGUUUUUUG", "note": "[G39U A41G G44U C56G A105C A111U]", "polymerase ribozyme fitness (log ratio)": -5.8}
{"variant": "GACCAAUCUGCCCUCAGAGCUCGAGAACAUCUUCGGAUCCAGAGGAGGCAGGCUUCGGUGGCGCGAUAGCGCCAACGUCCUCAACCUCCAAUGCAUCCCACCACAUGAUGAAGCCUGAAGUGCCUUGGUUUUUUG", "note": "[G39C U112A A121U]", "polymerase ribozyme fitness (log ratio)": 1.84}
{"variant": "GACCAAUCUGCCCUCAGAGCUCGAGAACAUCUUCGGAUUCAGAGGAGGCAGGCUUCGGUGGCGCGAUAGCGCCAACGUCCUCAACCUCCAAUGCAUCCCACCACAUGAUGAUGCCUGAAGAGCCUUGGUUUUUUG", "note": "[G39U]", "polymerase ribozyme fitness (log ratio)": -0.799}
{"variant": "GACCAAUCUGCCCUCAGAGCUCGAGAACAUCUUCGGAUCCAGAGCAGGCAGGCUUCGGUGGCGUGAUAGCGCCAACGUCCUAAAGCUCCAAUGCAUCCCACCACAUGAUGAUGCCUGAAGAGCCUUGGUUUUUUG", "note": "[G39C G45C C64U C82A C85G]", "polymerase ribozyme fitness (log ratio)": -5.8}
{"variant": "GACCAAUCUGCCCUCAGAGCUCGAGAACAUCUUCGGAUCCAGAGGAGGCAGGCUUCGGUGGCGCGAUAACGCCAACGUCCUCAACCUCCAAUGCAUCCCACCACAUGAUGAUGCCUGAAGAGCCUUGGUUUUUUG", "note": "[G39C G69A]", "polymerase ribozyme fitness (log ratio)": -3.44}
{"variant": "GACCAAUCUGCCCUCAGAGCUCGAGAACAUCUUCGGAUCCAGAGGAGGCAGGCUUCGGUGGCCCGAUAGCGCCAACGUCCUCAACCUCCAAUGCAUCCCACCAAAUGAUGAUGCCUGAAGAGCCUUGGUUUUUUG", "note": "[G39C G63C C104A]", "polymerase ribozyme fitness (log ratio)": -3.07}
{"variant": "GACCAAUCUGCCCUCAGAGCUCGAGAACAUCUUCGGAUUCCGAGGAGGCAGGCUUCGGUGGCGCGAUAGCGCCAACGUCCUCAACCUCCAAUGUAUCCCACCACAUGAUGAUGCCUGAAGAGCAUUGGUUUUUUG", "note": "[G39U A41C C94U C124A]", "polymerase ribozyme fitness (log ratio)": 0.616}
{"variant": "GACCAAUCUGCCCUCAGAGCUCGAGAACAUCUUCGGAUCCAGAGGAGGCAGGCUUCGGUGGCACGAUAGCGCCAAAGUCCUCAACCUCCAAUGCAUCCCACCACAUGAUGAUGCCUCAAGAGCCUUGGUUUUUUG", "note": "[G39C G63A C76A G117C]", "polymerase ribozyme fitness (log ratio)": -6.26}
{"variant": "GACCAAUCUGCCCUCAGAGCUCGAGAACAUCUUCGGAUCCAGAGGAGGCAGGCUUCGGUGGCGCGAUAACGCCAACGUCCUCAACCUCCAAUGCAUCCCACCACAUGAUGAAGCCUGAAGAGCCUUGGUUUUUUG", "note": "[G39C G69A U112A]", "polymerase ribozyme fitness (log ratio)": -3.52}
{"variant": "GACCAAUCUGCCCUCAGAGCUCGAGAACAUCUUCGGAUCCAGAGGAGUCAGGCUUCGGUGGCGCGAUAGCGCCAACGUCCUCAACCUCCAAUGCAUCCCACCACAUGAUGUUGCCUGAAGAGCCUUGGUUUUUUG", "note": "[G39C G48U A111U]", "polymerase ribozyme fitness (log ratio)": -4.49}
{"variant": "GACCAAUCUGCCCUCAGAGCUCGAGAACAUCUUCGGAUCCAGAGGAGGCAGGCUUCGGUGGCGCGAUAGCGCCAACGUCCUCAACCUCCAAUGCAUCCCACCACAUGAUGAUGCCUGAAGAGCCUAGGUUUUUUG", "note": "[G39C U126A]", "polymerase ribozyme fitness (log ratio)": -2.89}
{"variant": "GACCAAUCUGCCCUCAGAGCUCGAGAACAUCUUCGGAUCCAGAGGAGGCAGGCUUCGGAGGCGCGAUAGCGCCAACGUCCUCAACCUCCAAUGCAUCCCACCAAAUGAUGAUGCCUGAAGAGCCUUGGUUUUUUG", "note": "[G39C U59A C104A]", "polymerase ribozyme fitness (log ratio)": -2.48}
